Here are results for two molecules from patent publication US20190023793A1 (Innovent, published 2019).

Assay [1] addresses T1, B7H3 (human) (human, UniProt Q5ZPR3 29-461, limits assumed).
T1 construct: also called PD-L1 family members
T1 sequence (looked up): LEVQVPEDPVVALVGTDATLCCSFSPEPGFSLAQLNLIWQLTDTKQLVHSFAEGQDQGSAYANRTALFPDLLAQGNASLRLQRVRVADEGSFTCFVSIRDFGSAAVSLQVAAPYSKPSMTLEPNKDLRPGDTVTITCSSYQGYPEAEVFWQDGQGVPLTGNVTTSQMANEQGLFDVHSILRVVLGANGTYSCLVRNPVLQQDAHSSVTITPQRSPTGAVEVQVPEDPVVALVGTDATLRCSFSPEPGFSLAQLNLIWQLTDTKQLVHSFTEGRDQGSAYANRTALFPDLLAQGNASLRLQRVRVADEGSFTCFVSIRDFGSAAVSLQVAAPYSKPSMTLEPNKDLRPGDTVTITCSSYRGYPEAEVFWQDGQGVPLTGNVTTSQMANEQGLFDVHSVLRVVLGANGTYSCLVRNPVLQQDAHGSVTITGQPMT
The assay can be described thus: ELISA, antigen coated at 0.5 µg per well, biotinylated nanobody, streptavidin-HRP. As for the experimental part:
(§1) (2) The antigen proteins PD-L1 (human), PD-L1 (rat), PD-L1 (monkey), PD-L2 (human), B7H4 (human), B7H3 (human) were coated: 0.5 μg per well (5 μg/mL, 100 μL), IgG1 was coated as a control, left overnight at 4° C.;
(§2) (4) Each biotinylated nanobodies were diluted to 10 μg/mL, and 100 μL of each was incubated in each well and allowed to react at RT for 1 hour.
(§3) (5) The unbound nanobodies were washed with PBST, 100 μL of streptavidin-HRP (1:1000 dilution) was added, and the resultant was let stand for 1 hour at room temperature.

Assay [2] has as its target T2, PD-L2 (human) (human, UniProt Q9BQ51 20-219, limits assumed).
T2 construct: also called PD-L1 family members
T2 sequence (looked up): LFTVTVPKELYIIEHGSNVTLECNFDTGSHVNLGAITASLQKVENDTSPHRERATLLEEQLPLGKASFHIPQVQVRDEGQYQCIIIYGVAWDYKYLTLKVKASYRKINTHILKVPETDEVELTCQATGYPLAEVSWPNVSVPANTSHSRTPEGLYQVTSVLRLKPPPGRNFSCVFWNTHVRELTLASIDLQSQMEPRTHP
Described as above. As for the experimental part:
as §1, §2, §3

Assay [3] concerns the target T3, B7H4 (human) (human, UniProt Q7Z7D3 25-258, limits assumed).
T3 construct: also called PD-L1 family members
T3 sequence (looked up): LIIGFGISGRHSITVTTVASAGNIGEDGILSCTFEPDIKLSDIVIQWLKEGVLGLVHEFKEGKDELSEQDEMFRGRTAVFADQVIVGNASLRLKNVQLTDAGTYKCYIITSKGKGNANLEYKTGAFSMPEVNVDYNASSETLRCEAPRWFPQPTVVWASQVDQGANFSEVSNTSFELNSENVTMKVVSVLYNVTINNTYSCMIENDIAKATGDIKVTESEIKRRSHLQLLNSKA
The description is as above. As for the experimental part: as §1, §2, §3

Assay [4] addresses T4, PD-L1 (human) antigen protein (human, UniProt Q9NZQ7 19-238, limits assumed).
T4 construct: also called human PD-L1; immobile phase antigens
The assay is described as follows: SPR, BiaCore T200, antigen immobilized on CM-5 chip, nanobody in five concentrations. As for the experimental part:
BiaCore T200 was used for detection. (1) Immobilization: The immobile phase antigens were immobilized on the surface of a CM-5 sensor chip using a carboxy-amino reaction;
(2) Binding: The nanobodies were diluted with HBS buffer to an appropriate concentration (five concentration gradients) to observe the antigen-nanobody binding process;
(4) Analysis of the experimental results.
For orientation: In SPR one partner is held on a chip, and binding of the other changes the refractive index at the surface.

T4 sequence (Q9NZQ7 19-238 limits assumed): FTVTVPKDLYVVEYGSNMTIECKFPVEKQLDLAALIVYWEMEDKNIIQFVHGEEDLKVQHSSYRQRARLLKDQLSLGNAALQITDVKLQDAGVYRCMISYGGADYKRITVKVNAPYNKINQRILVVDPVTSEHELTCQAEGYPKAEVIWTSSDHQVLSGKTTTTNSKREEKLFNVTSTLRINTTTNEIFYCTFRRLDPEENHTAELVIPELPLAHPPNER

B1: PD-L1 Nb-Fc protein (nanobody before humanization fused to IgG1 Fc) (Fc fusion)
chain: QVQLQESGGGSVQAGGSLRLSCQASAYTISRNSMGWFRQAPGKQREGVAAIESDGSTSYSDSVKGRFTISLGNAKNTLYLEMNSLKPEDTAMYYCAAPKVGLGPRTALGHLAFMTLPALNYWGQGTQVTVSS
notes: also called PD-L1 nanobodies; nanobodies before humanization; not shown: IgG1 Fc encoded by the pFUSE-IgG1 vector (Invivogen)
A word on the Kd: it is the free concentration of one partner at which half of the binding sites on the other are occupied at equilibrium, for simple one-to-one binding. For the molecule B1, the binding result in assay [1], in assay [2] and in assay [3] was “no binding (tested: 10 µg/mL)” each time. In assay [4], this molecule registered a Kd of 2.34 nM.

B2: humanized PD-L1 nanobody with Fc tag (humanized Nb-Fc) (Fc fusion)
chain: QVQLQESGGGLVQPGGSLRLSCAASAYTISRNSMGWFRQAPGKGLEGVAAIESDGSTSYSDSVKGRFTISLDNSKNTLYLEMNSLRAEDTAVYYCAAPKVGLGPRTALGHLAFMTLPALNYWGQGTLVTVSS
notes: also called humanized PD-L1 nanobodies; humanized nanobodies; not shown: IgG1 Fc encoded by the pFUSE-IgG1 vector (Invivogen)
For the molecule B2, the binding result in assay [1], in assay [2] and in assay [3] was “no binding (tested: 10 µg/mL)” in each case. Also, the Kd in assay [4] is 2.26 nM.
